Measurements published in doi:10.1101/354001.
Each block holds one substance with its values, some of them ahead of it.

Assays:
Assay in all cases: SEC + other: SDS-PAGE
[1] = target: Δ(185-243) Phe71Tyr apoA-I (globular domain, residues 1-184) (human)
[2] = target: Δ(185-243) Leu159Arg apoA-I (globular domain, residues 1-184) (human)
[3] = target: Δ(185-243) Glu34Lys apoA-I (globular domain, residues 1-184) (human)
[4] = target: Δ(185-243) WT apoA-I (globular domain, residues 1-184, of human apolipoprotein A-I) (human)

- stoichiometry N [1]: 2
Substance: Δ(185-243) Phe71Tyr apoA-I (globular domain, residues 1-184) (domain or fragment)

- stoichiometry N [2]: 2
Substance: Δ(185-243) Leu159Arg apoA-I (globular domain, residues 1-184) (domain or fragment)

- stoichiometry N [3]: 2
Substance: Δ(185-243) Glu34Lys apoA-I (globular domain, residues 1-184) (domain or fragment)

- stoichiometry N [4]: 2
Substance: Δ(185-243) WT apoA-I (globular domain, residues 1-184, of human apolipoprotein A-I) (domain or fragment)
